Tests used:
[1] = target: pIgR Domain 6 GST (D6-GST) fusion protein, species not stated (Schistosoma japonica) [GST: P08515]; test: SPR BIAcore, 1:1 Langmuir global fit 62.5-1000 nM; ligand not named
[2] = target: pIgR expressed on transfected MDCK cells; test: cell-based or functional assay

Chain of pIgR Domain 6 GST (D6-GST) fusion protein, species not stated (Schistosoma japonica) [GST: P08515] (P08515 whole entry, the tested form may be a part): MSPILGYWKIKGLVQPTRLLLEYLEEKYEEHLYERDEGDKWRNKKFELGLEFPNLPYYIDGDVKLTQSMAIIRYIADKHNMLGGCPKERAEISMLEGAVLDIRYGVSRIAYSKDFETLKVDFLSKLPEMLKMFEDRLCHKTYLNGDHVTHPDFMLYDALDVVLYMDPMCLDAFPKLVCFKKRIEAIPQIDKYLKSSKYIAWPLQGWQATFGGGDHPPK

B1: sFv5AF (scFv)
scFv: DYKAKQVQLVQSGGGVVQPGRSLRLSCAASGFTFSSYAMHWVRQAPGKGLEWVSAISGSGGSTYYADSVKGRFTISRDNAKNSLYLQMNSLRAEDTAVYYCARDTRGYFDLWGRGTLVTVSSGGGGSGGGGSGGGGSSELTQDPAMSVALGQTVRITCQGDSLRKYHASWYQQRPRQAPRLVVYGKNERPSGIPERFSGSTSGDTASLTISGLQAEDEADYYCHSRDSNADLVVFGGGTKVTVLGAAAEQKLISEEDLNGAAHHHHHH
Question: Which results are given for B1?
Answer: Ka [1]: 4.47e+06 M⁻¹; Kd [1]: 224 nM; koff [1]: 0.00464 s⁻¹; kon [1]: 27100 M⁻¹ s⁻¹; transcytosis on pIgR expressing MDCK cells overnight [2]: 2%
